# Data published in IntAct's records for PubMed 22407295.
# B1: mRNA-decapping enzyme-like protein (Arabidopsis thaliana (Mouse-ear cress)), Q9SJF3 (parent)
# chain: MSQNGKIIPNLDQNSTRLLNLTVLQRIDPYIEEILITAAHVTFYEFNIELSQWSRKDVEGSLFVVKRSTQPRFQFIVMNRRNTDNLVENLLGDFEYEVQGPYLLYRNASQEVNGIWFYNKRECEEVATLFNRILSAYSKVNQKPKASSSKSEFEELEAKPTMAVMDGPLEPSSTARDAPDDPAFVNFFSSTMNLGNTASGSASGPYQSSAIPHQPHQPHQPTIAPPVAAAAPPQIQSPPPLQSSSPLMTLFDNNPEVISSNSNIHTDLVTPSFFGPPRMMAQPHLIPGVSMPTAPPLNPNNASHQQRSYGTPVLQPFPPPTPPPSLAPAPTGPVISRDKVKEALLSLLQEDEFIDKITRTLQNALQQ
# partner: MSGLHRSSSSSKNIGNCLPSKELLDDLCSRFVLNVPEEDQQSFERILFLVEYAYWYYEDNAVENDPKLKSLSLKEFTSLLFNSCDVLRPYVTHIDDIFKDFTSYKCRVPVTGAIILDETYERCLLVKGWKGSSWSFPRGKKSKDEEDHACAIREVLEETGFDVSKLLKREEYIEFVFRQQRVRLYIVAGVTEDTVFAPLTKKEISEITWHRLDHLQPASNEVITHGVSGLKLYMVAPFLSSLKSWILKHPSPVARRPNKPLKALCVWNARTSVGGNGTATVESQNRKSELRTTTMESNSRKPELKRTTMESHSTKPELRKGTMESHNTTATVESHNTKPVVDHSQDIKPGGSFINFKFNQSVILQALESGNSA
# Variants of: B1
# Settings: with dcp2_arath DCP2, Q8GW31
row,Variant,effect of a mutation on the interaction
1,S237D,increasing interaction
